Legend:
[1] = biological target: T1, HUαβ (Escherichia coli, UniProt P0ACF0;P0ACF4 1-90;1-90); assay: ITC
[2] = biological target: T1, HUαβ; assay: ITC; remark: listed apart in the source

T1 sequence (P0ACF0 whole entry, chain 1 of 2): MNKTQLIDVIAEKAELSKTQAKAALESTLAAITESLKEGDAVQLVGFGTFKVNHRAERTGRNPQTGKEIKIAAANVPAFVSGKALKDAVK
T1 sequence (P0ACF4 whole entry, chain 2 of 2): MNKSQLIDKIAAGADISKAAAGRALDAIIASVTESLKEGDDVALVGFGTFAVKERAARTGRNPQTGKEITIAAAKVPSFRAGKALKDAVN

Binder | binding signal [1] | binding result [2]
15 bp DNA (dsDNA) DNA 1: CGGTCAGTTCAAGGC DNA 2: GCCTTGAACTGACCG | 2.8 ± 1 k10/k6 ratio | 
38 bp DNA (dsDNA) DNA 1: CGGTCAGTTCAAGCCCTTCTAAGTTTGTAGACACCAGC DNA 2: GCTGGTGTCTACAAACTTAGAAGGGCTTGAACTGACCG |  | binds
